# Test results reported in IntAct's records for PubMed 19909340.
# B1: Broad substrate specificity ATP-binding cassette transporter ABCG2 (Homo sapiens), Q9UNQ0 (parent)
# chain: MSSSNVEVFIPVSQGNTNGFPATASNDLKAFTEGAVLSFHNICYRVKLKSGFLPCRKPVEKEILSNINGIMKPGLNAILGPTGGGKSSLLDVLAARKDPSGLSGDVLINGAPRPANFKCNSGYVVQDDVVMGTLTVRENLQFSAALRLATTMTNHEKNERINRVIQELGLDKVADSKVGTQFIRGVSGGERKRTSIGMELITDPSILFLDEPTTGLDSSTANAVLLLLKRMSKQGRTIIFSIHQPRYSIFKLFDSLTLLASGRLMFHGPAQEALGYFESAGYHCEAYNNPADFFLDIINGDSTAVALNREEDFKATEIIEPSKQDKPLIEKLAEIYVNSSFYKETKAELHQLSGGEKKKKITVFKEISYTTSFCHQLRWVSKRSFKNLLGNPQASIAQIIVTVVLGLVIGAIYFGLKNDSTGIQNRAGVLFFLTTNQCFSSVSAVELFVVEKKLFIHEYISGYYRVSSYFLGKLLSDLLPMRMLPSIIFTCIVYFMLGLKPKADAFFVMMFTLMMVAYSASSMALAIAAGQSVVSVATLLMTICFVFMMIFSGLLVNLTTIASWLSWLQYFSIPRYGFTALQHNEFLGQNFCPGLNATGNNPCNYATCTGEEYLVKQGIDLSPWGLWKNHVALACMIVIFLTIAYLKLLFLKKYS
# Variants of: B1
# Settings: with ubc_human UBC
row,Variant,effect of a mutation on the interaction
1,N596Q,increasing interaction
